{
  "source": "patent US20140348819A1",
  "about": "“Methods of Treating Cancer” (Dana-Farber Cancer Institute, Inc., priority 2011, published 2014)",
  "molecules": {"B1": {"name": "flt-3 ligand (FL) (protein, UniProt P49771 27-235, looked up)", "Fms-related tyrosine kinase 3 …": "TQDCSFQHSPISSDFAVKIRELSDYLLQDYPVTVASNLQDEELCGGLWRLVLAQRWMERLKTVAGSKMQGLLERVNTEIHFVTKCAFQPPPSCLRFVQTNISRLLQETSEQLVALKPWITRQNFSRCLELQCQPDSSTLPPPWSPRPLEATAPTAPQPPLLLLLLLPVGLLLLAAAWCLHWQRTRRRTPRPGEQVPPVPSPQDLLLVEH"}},
  "tested_on": "six V600E BRAF melanoma cell lines",
  "experiment": "Screening of recombinant RTK ligands for ability to confer resistance to BRAFi (PLX4720) or MEKi (PD184352) (Table 4)",
  "format": "cell-based, human",
  "design": "ability of recombinant RTK ligand to confer resistance / ability of recombinant RTK ligand to confer resistance (screening value): scale not given here",
  "method_in_brief": "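Six V600E BRAF melanoma lines treated with PLX4720 or PD184352 after addition of 22 recombinant RTK ligands, scored for drug resistance. Activation of selected RTKs confirmed by western blotting and high-throughput tyrosine kinase phosphorylation profiling.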",
  "data": [
    {"molecule": "B1", "values": [
      {"measurement": "ability of recombinant RTK ligand to confer resistance", "setting": "A2058, PD184352 - 1 uM, ligand 0.4 ng/ml", "value": 1.03},
      {"measurement": "ability of recombinant RTK ligand to confer resistance", "setting": "A2058, PD184352 - 1 uM, ligand 1.6 ng/ml", "value": 0.99},
      {"measurement": "ability of recombinant RTK ligand to confer resistance", "setting": "A2058, PD184352 - 1 uM, ligand 6.25 ng/ml", "value": 1.00},
      {"measurement": "ability of recombinant RTK ligand to confer resistance", "setting": "A2058, PD184352 - 1 uM, ligand 25 ng/ml", "value": 1.02},
      {"measurement": "ability of recombinant RTK ligand to confer resistance", "setting": "A2058, PD184352 - 1 uM, ligand 100 ng/ml", "value": 0.89},
      {"measurement": "ability of recombinant RTK ligand to confer resistance", "setting": "A2058, PLX4720 - 2 uM, ligand 0.4 ng/ml", "value": 0.97},
      {"measurement": "ability of recombinant RTK ligand to confer resistance", "setting": "A2058, PLX4720 - 2 uM, ligand 1.6 ng/ml", "value": 0.98},
      {"measurement": "ability of recombinant RTK ligand to confer resistance", "setting": "A2058, PLX4720 - 2 uM, ligand 6.25 ng/ml", "value": 1.01},
      {"measurement": "ability of recombinant RTK ligand to confer resistance", "setting": "A2058, PLX4720 - 2 uM, ligand 25 ng/ml", "value": 1.06},
      {"measurement": "ability of recombinant RTK ligand to confer resistance", "setting": "A2058, PLX4720 - 2 uM, ligand 100 ng/ml", "value": 0.93},
      {"measurement": "ability of recombinant RTK ligand to confer resistance", "setting": "C32, PD184352 - 1 uM, ligand 0.4 ng/ml", "value": 1.02},
      {"measurement": "ability of recombinant RTK ligand to confer resistance", "setting": "C32, PD184352 - 1 uM, ligand 1.6 ng/ml", "value": 1.08},
      {"measurement": "ability of recombinant RTK ligand to confer resistance", "setting": "C32, PD184352 - 1 uM, ligand 6.25 ng/ml", "value": 1.10},
      {"measurement": "ability of recombinant RTK ligand to confer resistance", "setting": "C32, PD184352 - 1 uM, ligand 25 ng/ml", "value": 1.08},
      {"measurement": "ability of recombinant RTK ligand to confer resistance", "setting": "C32, PD184352 - 1 uM, ligand 100 ng/ml", "value": 1.07},
      {"measurement": "ability of recombinant RTK ligand to confer resistance", "setting": "C32, PLX4720 - 2 uM, ligand 0.4 ng/ml", "value": 0.99},
      {"measurement": "ability of recombinant RTK ligand to confer resistance", "setting": "C32, PLX4720 - 2 uM, ligand 1.6 ng/ml", "value": 0.97},
      {"measurement": "ability of recombinant RTK ligand to confer resistance", "setting": "C32, PLX4720 - 2 uM, ligand 6.25 ng/ml", "value": 1.00},
      {"measurement": "ability of recombinant RTK ligand to confer resistance", "setting": "C32, PLX4720 - 2 uM, ligand 25 ng/ml", "value": 0.87},
      {"measurement": "ability of recombinant RTK ligand to confer resistance", "setting": "C32, PLX4720 - 2 uM, ligand 100 ng/ml", "value": 0.97},
      {"measurement": "ability of recombinant RTK ligand to confer resistance", "setting": "Colo 829, PD184352 - 1 uM, ligand 0.4 ng/ml", "value": 1.07},
      {"measurement": "ability of recombinant RTK ligand to confer resistance", "setting": "Colo 829, PD184352 - 1 uM, ligand 1.6 ng/ml", "value": 0.98},
      {"measurement": "ability of recombinant RTK ligand to confer resistance", "setting": "Colo 829, PD184352 - 1 uM, ligand 6.25 ng/ml", "value": 0.97},
      {"measurement": "ability of recombinant RTK ligand to confer resistance", "setting": "Colo 829, PD184352 - 1 uM, ligand 25 ng/ml", "value": 1.05},
      {"measurement": "ability of recombinant RTK ligand to confer resistance", "setting": "Colo 829, PD184352 - 1 uM, ligand 100 ng/ml", "value": 0.97},
      {"measurement": "ability of recombinant RTK ligand to confer resistance", "setting": "Colo 829, PLX4720 - 2 uM, ligand 0.4 ng/ml", "value": 1.08},
      {"measurement": "ability of recombinant RTK ligand to confer resistance", "setting": "Colo 829, PLX4720 - 2 uM, ligand 1.6 ng/ml", "value": 0.98},
      {"measurement": "ability of recombinant RTK ligand to confer resistance", "setting": "Colo 829, PLX4720 - 2 uM, ligand 6.25 ng/ml", "value": 1.00},
      {"measurement": "ability of recombinant RTK ligand to confer resistance", "setting": "Colo 829, PLX4720 - 2 uM, ligand 25 ng/ml", "value": 1.05},
      {"measurement": "ability of recombinant RTK ligand to confer resistance", "setting": "Colo 829, PLX4720 - 2 uM, ligand 100 ng/ml", "value": 0.97},
      {"measurement": "ability of recombinant RTK ligand to confer resistance", "setting": "G-361, PD184352 - 1 uM, ligand 0.4 ng/ml", "value": 1.04},
      {"measurement": "ability of recombinant RTK ligand to confer resistance", "setting": "G-361, PD184352 - 1 uM, ligand 1.6 ng/ml", "value": 1.09},
      {"measurement": "ability of recombinant RTK ligand to confer resistance", "setting": "G-361, PD184352 - 1 uM, ligand 6.25 ng/ml", "value": 0.97},
      {"measurement": "ability of recombinant RTK ligand to confer resistance", "setting": "G-361, PD184352 - 1 uM, ligand 25 ng/ml", "value": 1.01},
      {"measurement": "ability of recombinant RTK ligand to confer resistance", "setting": "G-361, PD184352 - 1 uM, ligand 100 ng/ml", "value": 0.89},
      {"measurement": "ability of recombinant RTK ligand to confer resistance", "setting": "G-361, PLX4720 - 2 uM, ligand 0.4 ng/ml", "value": 1.00},
      {"measurement": "ability of recombinant RTK ligand to confer resistance", "setting": "G-361, PLX4720 - 2 uM, ligand 1.6 ng/ml", "value": 0.87},
      {"measurement": "ability of recombinant RTK ligand to confer resistance", "setting": "G-361, PLX4720 - 2 uM, ligand 6.25 ng/ml", "value": 0.88},
      {"measurement": "ability of recombinant RTK ligand to confer resistance", "setting": "G-361, PLX4720 - 2 uM, ligand 25 ng/ml", "value": 0.88},
      {"measurement": "ability of recombinant RTK ligand to confer resistance", "setting": "G-361, PLX4720 - 2 uM, ligand 100 ng/ml", "value": 0.79},
      {"measurement": "ability of recombinant RTK ligand to confer resistance", "setting": "SK-MEL-5, PD184352 - 1 uM, ligand 0.4 ng/ml", "value": 0.97},
      {"measurement": "ability of recombinant RTK ligand to confer resistance", "setting": "SK-MEL-5, PD184352 - 1 uM, ligand 1.6 ng/ml", "value": 0.97},
      {"measurement": "ability of recombinant RTK ligand to confer resistance", "setting": "SK-MEL-5, PD184352 - 1 uM, ligand 6.25 ng/ml", "value": 1.00},
      {"measurement": "ability of recombinant RTK ligand to confer resistance", "setting": "SK-MEL-5, PD184352 - 1 uM, ligand 25 ng/ml", "value": 0.92},
      {"measurement": "ability of recombinant RTK ligand to confer resistance", "setting": "SK-MEL-5, PD184352 - 1 uM, ligand 100 ng/ml", "value": 0.90},
      {"measurement": "ability of recombinant RTK ligand to confer resistance", "setting": "SK-MEL-5, PLX4720 - 2 uM, ligand 0.4 ng/ml", "value": 1.07},
      {"measurement": "ability of recombinant RTK ligand to confer resistance", "setting": "SK-MEL-5, PLX4720 - 2 uM, ligand 1.6 ng/ml", "value": 1.07},
      {"measurement": "ability of recombinant RTK ligand to confer resistance", "setting": "SK-MEL-5, PLX4720 - 2 uM, ligand 6.25 ng/ml", "value": 1.03},
      {"measurement": "ability of recombinant RTK ligand to confer resistance", "setting": "SK-MEL-5, PLX4720 - 2 uM, ligand 25 ng/ml", "value": 0.93},
      {"measurement": "ability of recombinant RTK ligand to confer resistance", "setting": "SK-MEL-5, PLX4720 - 2 uM, ligand 100 ng/ml", "value": 1.04},
      {"measurement": "ability of recombinant RTK ligand to confer resistance", "setting": "SK-MEL-28, PD184352 - 1 uM, ligand 0.4 ng/ml", "value": 1.04},
      {"measurement": "ability of recombinant RTK ligand to confer resistance", "setting": "SK-MEL-28, PD184352 - 1 uM, ligand 1.6 ng/ml", "value": 0.95},
      {"measurement": "ability of recombinant RTK ligand to confer resistance", "setting": "SK-MEL-28, PD184352 - 1 uM, ligand 6.25 ng/ml", "value": 0.98},
      {"measurement": "ability of recombinant RTK ligand to confer resistance", "setting": "SK-MEL-28, PD184352 - 1 uM, ligand 25 ng/ml", "value": 0.78},
      {"measurement": "ability of recombinant RTK ligand to confer resistance", "setting": "SK-MEL-28, PD184352 - 1 uM, ligand 100 ng/ml", "value": 0.99},
      {"measurement": "ability of recombinant RTK ligand to confer resistance", "setting": "SK-MEL-28, PLX4720 - 2 uM, ligand 0.4 ng/ml", "value": 0.94},
      {"measurement": "ability of recombinant RTK ligand to confer resistance", "setting": "SK-MEL-28, PLX4720 - 2 uM, ligand 1.6 ng/ml", "value": 0.90},
      {"measurement": "ability of recombinant RTK ligand to confer resistance", "setting": "SK-MEL-28, PLX4720 - 2 uM, ligand 6.25 ng/ml", "value": 0.86},
      {"measurement": "ability of recombinant RTK ligand to confer resistance", "setting": "SK-MEL-28, PLX4720 - 2 uM, ligand 25 ng/ml", "value": 0.82},
      {"measurement": "ability of recombinant RTK ligand to confer resistance", "setting": "SK-MEL-28, PLX4720 - 2 uM, ligand 100 ng/ml", "value": 0.98}
    ]}
  ]
}
